For assay [1], the target named is p62-UBA K435Q (for NMR) (mouse) (UniProt Q64337). The assay is described as follows: NMR dilution series (1H-15N HSQC peak volumes of monomer and dimer); 15N-labeled p62-UBA diluted from 500 to 20 µM; 298 K, pH 6.0, 20 mM sodium acetate, 100 mM NaCl; dimer to monomers.
Assay [2] concerns the target p62-UBA K420Q (for NMR) (mouse) (UniProt Q64337). Described as above.

This passage reports Kd results from paper PMC6923396.

Regarding “p62-UBA K435Q (for NMR) (from UniProt Q64337-1 391-437) (domain or fragment)”, the dissociation constant (Kd) in assay [1] amounted to 15.5 µM.

In assay [2], “p62-UBA K420Q (for NMR) (from UniProt Q64337-1 391-436) (domain or fragment)” yielded a dissociation constant Kd of 41.2 µM.

Usually Kd stands for the concentration at which binding is half-saturated.
